The data set deals with CCCC(=O)Oc1ccc([N+](=O)[O-])cc1. Nature of the data set: purified protein. The note with it: 37 °C, semi-purified His-tagged enzyme, methods state optimal assay conditions (pH 7).

Consider LipJ (Bacillus sp. (in: firmicutes)), for which the Km was 1700 µM.

These data come from article PMC5526573, “Bacillus sp. JR3 esterase LipJ: A new mesophilic enzyme showing traces of a thermophilic past” (PLoS ONE, 2017).
